Laboratory results reported in US20200262927A1 (OXFORD BIOTHERAPEUTICS, published 2020).

Tests used:
[1] = target: T1, Recombinant hCRTAM/Fc Chimera (R&D Systems, Catalogue 1695-CR) (human, UniProt O95727 18-286); test: Octet BLI, antibody captured on anti-human IgG Fc biosensors, hCRTAM/Fc chimera as analyte from 200 nM diluted 1:3, global 1:1 fit
T1 construct: also called human recombinant hCRTAM/Fc chimera; Fc part of the bought chimera not given
T1 sequence: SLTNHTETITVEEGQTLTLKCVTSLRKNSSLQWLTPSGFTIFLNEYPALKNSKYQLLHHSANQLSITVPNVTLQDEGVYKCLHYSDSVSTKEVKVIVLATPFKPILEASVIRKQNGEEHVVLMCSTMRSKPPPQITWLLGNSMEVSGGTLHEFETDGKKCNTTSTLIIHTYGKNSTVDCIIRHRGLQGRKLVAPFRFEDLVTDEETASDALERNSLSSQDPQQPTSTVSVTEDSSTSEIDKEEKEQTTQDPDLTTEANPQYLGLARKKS
Experimental: (§1) Anti-human IgG-Fc Capture (AHC) ForteBio biosensors were loaded with the test antibodies at a concentration of 1 μg/mL over 300 seconds.
(§2) The loaded biosensors were incubated with 5 concentrations of human recombinant hCRTAM/Fc chimera starting at 200 nM, which was serially diluted 1:3; a reference well contained kinetic buffer only (to correct for drift).
(§3) The data from all concentrations were fit using a global 1:1 curve fit for each sample. Where possible the kinetic association and dissociation rates and the KD values were determined.

[2] = target: T1, Recombinant hCRTAM/Fc Chimera (R&D …); test: Octet BLI, antibody captured on anti-human IgG Fc biosensors, hCRTAM/Fc chimera as analyte, global 1:1 fit
Experimental: as §1, §2, §3

B1: humanised 5A11 antibody (antibody, V domains shown)
VH: EVQLVESGGGLVQPGGSLKLSCAASGFTFSDAAMYWVRQASGKGLEWVARIRTKTNNYAAHYVESVKGRFTVSRDDSKNTVYLQMNSLKTEDTAMYYCTSVPQGTQDYWGQGTLVTVSS
VL: SYELTQPSSVSVSPGQTARITCSGDVLSKRYAQWSQQKPGQAIVSVIYKDSERPSGIPERFSGSSSGTTATLTISGAQVEDEADYYCLSTYADDNLPVFGGGTKLTVL
notes: Captured on anti-human IgG Fc biosensors, so it carried a human IgG Fc; also called humanized antibody 5A11
Kd [1]: 0.439 nM
koff [2]: 0.00011 s⁻¹
kon [2]: 249000 M⁻¹ s⁻¹
